According to patent publication US20240052037A1 (BEIJING HANMI PHARMACEUTICAL, published 2024):

Molecular target: T1, CD47 on cells (HCC827 tumor cells; red blood cells from healthy people) (human, UniProt Q08722 19-323)
T1 construct: whole, on cells; Endogenous CD47 on human cells
Assay: flow cytometry on mixed HCC827 cells and red blood cells
Experimental: HCC827 tumor cells express PD-L1 and CD47, but red blood cells (RBCs) express only CD47. HCC827 cells and RBCs were mixed together, and flow cytometry (FCM) was used to detect whether the heterodimer was selective for the binding to the two cells in the mixed cells.
The specific implementation process of this method is as follows. […] Flow tubes were incubated on ice for 30 minutes. The cells were washed twice with PBS containing 2% FBS. Then the pellets were resuspended in 200 μL of cold PBS containing 2% FBS and FITC-labeled anti-human IgG antibody diluted 1:1000 (Beijing Zhongshan Golden Bridge, Catalog number ZF0306), incubated on ice for 30 minutes in the dark. The cells were washed twice with PBS containing 2% FBS, then resuspended in 500 μL of cold PBS. The cell suspension obtained was detected and analyzed on a flow cytometer (BD, FACS Calibur), and the respective fluorescence intensities of the two cells in the mixed cells were read.

T1 sequence (Q08722 19-323): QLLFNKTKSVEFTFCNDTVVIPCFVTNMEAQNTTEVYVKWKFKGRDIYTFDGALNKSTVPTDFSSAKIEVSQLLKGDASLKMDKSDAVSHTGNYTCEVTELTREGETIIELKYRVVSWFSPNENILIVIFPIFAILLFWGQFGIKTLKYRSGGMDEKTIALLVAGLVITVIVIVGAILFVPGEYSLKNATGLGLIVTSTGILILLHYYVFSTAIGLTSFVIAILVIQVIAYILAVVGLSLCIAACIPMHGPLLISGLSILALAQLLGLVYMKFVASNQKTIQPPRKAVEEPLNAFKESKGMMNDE

B1: CD47 monoclonal antibody (heavy and light chain variable region sequences of the humanized sequences z11 of the antibody CD47-18-5 and the constant region … (antibody, V domains shown)
VH: QVQLVQSGAEVKKPGSSVKVSCKASGFNIEDIYMHWVRQAPGQGLEWMGRIDPANDNTKYGPKLQGRVTITADTSTNTAYMELSSLRSEDTAVYYCVRRIPTDIMDYWGQGTTVTVSS
VL: DIQMTQSPSSLSASVGDRVTITCKASQNVRTSIAWYQQKPGKAPKTLIYLASNRHTGVPSRFSGSGSGTEFTLTISNLQPEDFATYYCLQHWNYPFTFGQGTKLEIK
notes: also called anti-CD47 monoclonal antibody
B1: binds.
